From publication PMC3082911 (Nucleic Acids Research, 2010)
Values belong to the molecule of their own block, whether it stands above or below them.

Key:
[1] = molecular target: myc-tagged PSF (full-length) (UniProt Q8VIJ6); experiment: co-IP
[2] = molecular target: T1, myc-tagged PSF (full-length) (UniProt Q8VIJ6 1-699); experiment: co-IP
T1 sequence: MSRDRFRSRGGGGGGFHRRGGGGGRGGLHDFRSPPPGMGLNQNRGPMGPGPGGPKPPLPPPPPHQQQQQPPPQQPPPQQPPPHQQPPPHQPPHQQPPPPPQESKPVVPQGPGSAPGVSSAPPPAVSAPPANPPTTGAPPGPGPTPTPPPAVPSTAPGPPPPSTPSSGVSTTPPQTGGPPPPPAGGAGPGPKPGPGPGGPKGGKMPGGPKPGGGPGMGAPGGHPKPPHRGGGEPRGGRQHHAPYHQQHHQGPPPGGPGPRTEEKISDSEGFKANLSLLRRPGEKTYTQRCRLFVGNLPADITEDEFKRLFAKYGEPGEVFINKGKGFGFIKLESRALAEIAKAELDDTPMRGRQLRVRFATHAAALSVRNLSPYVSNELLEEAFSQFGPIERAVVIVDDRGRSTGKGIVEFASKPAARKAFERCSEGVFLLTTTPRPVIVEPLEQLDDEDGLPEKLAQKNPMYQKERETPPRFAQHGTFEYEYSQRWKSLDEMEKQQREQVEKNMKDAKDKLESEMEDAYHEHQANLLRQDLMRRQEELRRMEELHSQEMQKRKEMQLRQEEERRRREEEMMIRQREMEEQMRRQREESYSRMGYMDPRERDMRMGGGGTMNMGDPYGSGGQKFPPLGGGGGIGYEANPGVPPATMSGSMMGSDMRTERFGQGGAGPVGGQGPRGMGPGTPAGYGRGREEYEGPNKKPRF

Molecule: myc-tagged Fox-3-S (from UniProt Q8BIF2-5 1-327) (natural protein)
fold more efficiently pulled down by PSF than Fox-1 [1]: 7 fold
fold more efficiently pulled down by PSF than Fox-2 [1]: 2.7 fold

fold more efficiently pulled down by PSF than Fox-1 [2]: 7 fold
fold more efficiently pulled down by PSF than Fox-2 [2]: 2.7 fold
B1: myc–Fox-3-L (natural protein)
chain: MAQPYPPAQYPPPPQNGIPAEYAPPPPHPTQDYSGQTPVPPEHGMTLYTPAQTHPEQPGTEASTQPIAGTQTVPQADEAAQTDNQQLHPSDPTEKQQPKRLHVSNIPFRFRDPDLRQMFGQFGKILDVEIIFNERGSKGFGFVTFETSSDADRAREKLNGTIVEGRKIEVNNATARVMTNKKPGNPYANGWKLNPVVGTVYGPEFYAVTSFPYPTTGTAVAYRGAHLRGRGRAVYNTFRAAPPPPPIPTYGAALEQTLVKMPVPWAGLAPCPLPPQQTPEPAYPTSPAFPPLSCPFASRVVYQDGFYGAEIYGGYAAYRYAQPAAATAAAYSDSYGRVYAAADPYHHTIGPTATYSIGTMASLCRGGYSRFTPY
